Measured values as given in PMC4733052, “Heart of glass anchors Rasip1 at endothelial cell-cell junctions to support vascular integrity” (eLife, 2016).
One block for each binder: values may come before it.

B1: human Rap1 isoform Rap1B (residues 1–167), GMP-PNP-bound (natural protein, UniProt P61224 1-167, looked up)
chain: MREYKLVVLGSGGVGKSALTVQFVQGIFVEKYDPTIEDSYRKQVEVDAQQCMLEILDTAGTEQFTAMRDLYMKNGQGFALVYSITAQSTFNDLQDLREQILRVKDTDDVPMILVGNKCDLEDERVVGKEQGQNLARQWNNCAFLESSAKSKINVNEIFYDLVRQINR
notes: Rap1B, human, residues 1-167; Loaded with GMP-PNP; expression and purification as in Gingras et al., 2013; source: Escherichia coli strain CK600K (pTAC vector), purified, nucleotide exchanged for GMP-PNP
B2: recombinant Rasip1 RA domain (residues 134-285) (domain or fragment, human, UniProt Q5U651 134-285, looked up)
chain: EPPLATRATAPPGVLKIFGAGLASGANYKSVLATARSTARELVAEALERYGLAGSPGGGPGESSCVDAFALCDALGRPAAAGVGSGEWRAEHLRVLGDSERPLLVQELWRARPGWARRFELRGREEARRLEQEAFGAADSEGTGAPSWRPQK
notes: Rasip1, human, Ras-association (RA) domain residues 134-285; Cloned into pETM-11; also called Rasip1 RA domain wild-type; Rasip1 wild-type

Tests used:
[1] = biological target: B2; experiment: ITC; VP-ITC at 25°C; 335 μM GMP-PNP-bound Rap1B from the syringe into 30 μM Rasip1 RA domain (monomer concentration) in the cell; 20 mM Sodium Phosphate, 200 mM NaCl, 3 mM MgCl2, pH 6.5, 0.1 mM GMP-PNP; single-site fit; settings: both partners purified
[2] = biological target: the molecule itself; experiment: SEC; Rasip1 RA domain alone (50 μM) on Superdex-75 (10/300); apparent mass against calculated monomer mass 16.3 kDa
[3] = biological target: B1; experiment: ITC; VP-ITC at 25°C; 335 μM GMP-PNP-bound Rap1B from the syringe into 30 μM Rasip1 RA domain (monomer concentration) in the cell; 20 mM Sodium Phosphate, 200 mM NaCl, 3 mM MgCl2, pH 6.5, 0.1 mM GMP-PNP; single-site fit; settings: both partners purified
[4] = biological target: T1, αIIb integrin cytoplasmic tail (Homo sapiens (Human), UniProt P08514, biotin on the in vivo biotinylation peptide tag); experiment: pull-down (NeutrAvidin bead-immobilised tail peptide, Coomassie-stained SDS-PAGE)
T1 chain: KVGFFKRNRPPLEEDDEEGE

Binder: B1
- stoichiometry N [1]: 2 Rap1 monomers per Rasip1 dimer

Binder: B2
- stoichiometry N [2]: 2
- Kd [3]: 770 ± 90 nM

B3: recombinant Rasip1 RA domain (residues 134-285) R182E (domain or fragment, human, UniProt Q5U651 134-285, looked up)
chain: EPPLATRATAPPGVLKIFGAGLASGANYKSVLATARSTARELVAEALEEYGLAGSPGGGPGESSCVDAFALCDALGRPAAAGVGSGEWRAEHLRVLGDSERPLLVQELWRARPGWARRFELRGREEARRLEQEAFGAADSEGTGAPSWRPQK
notes: Rasip1, human, RA domain residues 134-285 with R182E; also called Rasip1(R182E); Rasip1 RA domain (R182E)
- binding result [2]: binds

- binding result [4]: no binding
B4: recombinant His-MBP-fusion Rasip1 central domain (residues 266-550) (protein)
chain: EAFGAADSEGTGAPSWRPQKNRSRAASGGAALASPGPGTGSGAPAGSGGKERSENLSLRRSVSELSLQGRRRRQQERRQQALSMAPGAADAQIGTADPGDFDQLTQCLIQAPSNRPYFLLLQGYQDAQDFVVYVMTREQHVFGRGGNSSGRGGSPAPYVDTFLNAPDILPRHCTVRAGPEHPAMVRPSRGAPVTHNGCLLLREAELHPGDLLGLGEHFLFMYKDPRTGGSGPARPPWLPARPGATPPGPGWAFSCRLCGRGLQERGEALAAYLDGREPVLRFRPR
